Reference: patent publication US20110117113A1, “IMMUNOGLOBULIN SINGLE VARIABLE DOMAIN DIRECTED AGAINST HUMAN CXCR4 AND OTHER CELL ASSOCIATED PROTEINS AND METHODS TO GENERATE THEM” (priority 2009, published 2011)

T1: CXCR4 mutation library clone 465 (F189L, S319P, V155E) (human, UniProt P61073 1-352)
T1 chain: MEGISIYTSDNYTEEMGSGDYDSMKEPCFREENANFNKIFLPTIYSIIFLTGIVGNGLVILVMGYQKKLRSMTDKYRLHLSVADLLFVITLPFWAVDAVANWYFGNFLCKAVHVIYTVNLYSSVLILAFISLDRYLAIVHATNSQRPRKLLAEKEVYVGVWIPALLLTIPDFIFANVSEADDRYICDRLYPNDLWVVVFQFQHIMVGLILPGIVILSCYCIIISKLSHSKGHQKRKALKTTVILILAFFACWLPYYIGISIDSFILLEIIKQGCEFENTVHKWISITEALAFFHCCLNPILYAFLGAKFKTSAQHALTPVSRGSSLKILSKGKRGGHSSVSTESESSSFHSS

T2: CXCR4 mutation library clone 2834 (E179V, G258E) (human, UniProt P61073 1-352)
T2 chain: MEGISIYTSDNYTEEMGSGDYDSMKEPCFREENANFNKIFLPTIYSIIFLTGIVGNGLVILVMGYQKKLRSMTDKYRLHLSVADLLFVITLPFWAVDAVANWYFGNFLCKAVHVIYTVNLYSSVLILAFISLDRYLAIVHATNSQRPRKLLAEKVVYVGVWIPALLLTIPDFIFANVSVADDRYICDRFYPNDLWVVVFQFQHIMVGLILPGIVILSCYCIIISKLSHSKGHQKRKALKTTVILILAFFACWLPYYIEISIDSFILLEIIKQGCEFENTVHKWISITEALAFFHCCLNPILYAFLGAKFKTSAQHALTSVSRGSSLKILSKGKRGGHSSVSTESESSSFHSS

T3: CXCR4 mutation library clone 913 (F189S, K308R) (human, UniProt P61073 1-352)
T3 chain: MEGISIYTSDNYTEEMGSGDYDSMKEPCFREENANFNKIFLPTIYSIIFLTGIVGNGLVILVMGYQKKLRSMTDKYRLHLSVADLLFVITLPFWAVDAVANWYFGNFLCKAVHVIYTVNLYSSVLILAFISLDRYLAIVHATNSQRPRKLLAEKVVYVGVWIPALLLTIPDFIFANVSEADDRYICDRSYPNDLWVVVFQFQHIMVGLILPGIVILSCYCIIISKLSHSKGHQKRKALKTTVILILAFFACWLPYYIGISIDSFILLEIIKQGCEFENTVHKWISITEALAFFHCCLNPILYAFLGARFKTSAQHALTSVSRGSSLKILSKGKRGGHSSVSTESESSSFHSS

T4: CXCR4 mutation library clone 709 (P163L, S178I) (human, UniProt P61073 1-352)
T4 chain: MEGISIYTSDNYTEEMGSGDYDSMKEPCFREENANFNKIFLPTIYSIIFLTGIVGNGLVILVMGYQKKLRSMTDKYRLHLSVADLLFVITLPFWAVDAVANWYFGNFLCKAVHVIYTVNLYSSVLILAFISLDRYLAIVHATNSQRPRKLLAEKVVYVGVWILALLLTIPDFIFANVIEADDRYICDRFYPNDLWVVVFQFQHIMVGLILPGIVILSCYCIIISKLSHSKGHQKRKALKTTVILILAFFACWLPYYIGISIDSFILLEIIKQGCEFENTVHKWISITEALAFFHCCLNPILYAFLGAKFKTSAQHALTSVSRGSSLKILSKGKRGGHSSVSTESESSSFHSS

B1: Nanobody 238D4 (VHH)
VHH: EVQLMESGGGLVQAGGSLRLSCAASGRTFNNYAMGWFRRAPGKEREFVAAITRSGVRSGVSAIYGDSVKDRFTISRDNAKNTLYLQMNSLKPEDTAVYTCAASAIGSGALRRFEYDYSGQGTQVTVSS
B2: 238D2: monovalent anti CXCR4 Nanobody, SEQ ID NO: 2 (protein)
VHH: EVQLVESGGGLVQTGGSLRLSCAASGFTFSSYAMSWVRQAPGKGLEWVSGIKSSGDSTRYAGSVKGRFTISRDNAKNMLYLQMYSLKPEDTAVYYCAKSRVSRTGLYTYDNRGQGTQVTVSS
modifications: Nanobody

What was measured:
[1] = molecular target: T1, CXCR4 mutation library clone 465 …; experiment: immunofluorescence on HEK-293T expressing the clone, normalised to wild type
[2] = molecular target: CXCR4 mutation library clone 3622 (E277G) (human, UniProt P61073 1-352); experiment: as above
[3] = molecular target: CXCR4 mutation library clone 3630 (W195R) (human, UniProt P61073 1-352); experiment: as above
[4] = molecular target: CXCR4 mutation library clone 914 (N192K) (human, UniProt P61073 1-352); experiment: as above
[5] = molecular target: T2, CXCR4 mutation library clone 2834 …; experiment: as above
[6] = molecular target: T3, CXCR4 mutation library clone 913 …; experiment: as above
[7] = molecular target: T4, CXCR4 mutation library clone 709 …; experiment: as above
[8] = molecular target: CXCR4 mutation library clone 2396 (S178C) (human, UniProt P61073 1-352); experiment: as above
CXCR4 mutant 3 (D187V) = molecular target: T5, CXCR4 mutant 3 (D187V) (Homo sapiens, UniProt P61073, D187V); experiment: Footprint assay, flow cytometry binding to CXCR4 D187V on Hek293T cells; conditions: Myc-tag detection, 10 nM and 100 nM Nanobody, average n = 3, relative to hCXCR4
T5 construct: expressed in transfected cells; host or cells: Hek293T, transient, pcDNA3.1
T5 sequence (P61073 whole entry D187V): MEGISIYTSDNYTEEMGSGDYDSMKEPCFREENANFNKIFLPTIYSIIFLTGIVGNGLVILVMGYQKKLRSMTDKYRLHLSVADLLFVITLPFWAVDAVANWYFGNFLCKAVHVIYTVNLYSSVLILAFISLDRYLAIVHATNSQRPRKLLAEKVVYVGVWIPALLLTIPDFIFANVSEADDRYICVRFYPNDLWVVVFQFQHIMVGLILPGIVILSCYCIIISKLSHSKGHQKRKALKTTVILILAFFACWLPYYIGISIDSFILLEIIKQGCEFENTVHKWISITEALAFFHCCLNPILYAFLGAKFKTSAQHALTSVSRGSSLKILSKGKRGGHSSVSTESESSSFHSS
Description: Based on the data from example 1.8, we introduced 3 single point-mutations in ECL2 of CXCR4 that allowed to discriminate between 238D2 and 238D4-like epitopes: V196E (specifically disturbing D2 binding)-SEQ ID NO: 20, D187V (specifically disturbing D4 binding)-SEQ ID NO: 21, F189V (disturbing binding of both D2 and D4)-SEQ ID NO: 19. […] For the epitope mapping, transient transfections of the three CXCR4 mutants and wildtype human CXCR4 in the pcDNA3.1 vector were done in Hek293T cells, after which Nanobody binding of different families was assessed by flow cytometry using detection of the Myc-tag, followed by secondary anti-mouse PE. Two concentrations of Nanobody were tested, 10 nM and 100 nM, and experiment was repeated with essentially the same results. Binding of the Nanobodies to HEK293T hCXCR4 cells was used for normalization using the following formulas:
Percentage of binding to the mutant receptors was calculated for each Nanobody concentration, and a position was considered as critical when less than 25% residual binding (average of n=3) was observed (Table C-5). […] Nanobodies could be grouped according to their different binding patterns, not only in “238D2-like” or “epitope A binders” and “238D4-like” or “epitope B binders” but also into other new groups.

| Molecule | % immunofluorescence [1] | % immunofluorescence [2] | % immunofluorescence [3] | % immunofluorescence [4] | % immunofluorescence [5] | % immunofluorescence [6] | % immunofluorescence [7] | % immunofluorescence [8] | HEK293T D187V binding (CXCR4 mutant 3 (D187V)) |
| --- | --- | --- | --- | --- | --- | --- | --- | --- | --- |
| B1 | 12.2% | 52.5% | 58.8% | 55.8% | 19.5% | -16.9% | 30% | 28.2% |  |
| B2 |  |  |  |  |  |  |  |  | + (>75% binding to mutant rel. to hCXCR4) |
